Experimental data reported in patent publication US7799901B2, “Modulators of the function of FAS receptors and other proteins” (Yeda Research and Development Co. Ltd., priority 1995, dated 2010).

What was measured:
[1] = target: T1, GST-Fas-IC fusion protein with a replacement at the lpr^eg mutation site (I225A) (Mus musculus, UniProt P25446, I246A); experiment: In vitro binding to GST-Fas-IC with I225A replacement; details: [35S]-labeled protein from HeLa extracts; SDS-PAGE, autoradiography
T1 construct: GST fusion with Fas-IC containing a Ile to Ala replacement mutation at position 225; made in house; host or cells: E. coli
T1 sequence (P25446 187-327 I246A): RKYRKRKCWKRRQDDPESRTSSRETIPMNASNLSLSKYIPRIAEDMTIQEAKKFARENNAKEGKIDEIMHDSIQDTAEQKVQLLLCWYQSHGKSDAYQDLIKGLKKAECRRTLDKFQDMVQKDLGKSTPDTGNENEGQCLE
Description: Glutathione S-transferase (GST) fusions with the wild type or a mutated Fas-IC were produced and adsorbed to glutathione-agarose beads; see Boldin et al, 1995; Ausubel et al, 1994; Frangioni and Neel, 1993). Binding of metabolically-labeled FLAG-MORT-1 fusion protein to GST-Fas-IC was assessed by incubating the beads for 2 h at 4° C. with extracts of HeLa cells, metabolically labeled with [^35S]methionine (60 μCi/ml), that express FLAG-MORT-1. The extracts were prepared in a buffer containing 50 mM Tris-HCl, pH 7.5, 150 mM NaCl, 0.1% NP-40; 1 mM dithioteitol, 1 mM EDTA, 1 mM phenylmethylsulfonyl fluoride, 20 μg/ml Aprotonin, […] Leupeptin, 10 mM-sodium fluoride and 0.1 mM sodium vanadate (1 ml per 5×10^5 cells).
Expression of MORT-1 molecules fused at their N terminus with the. FLAG octapeptide (FLAG-MORT-1) yielded in HeLa cells proteins of four distinct sizes—about […], 28, 32, and 34 kD. […] Thus, the in vitro interaction was evaluated by assessing, by autoradiography following SDS-PAGE, the binding of [35] metabolically labeled MORT-1, produced in transfected HeLa cells as a fusion with the FLAG octapeptide (FLAG-MORT-1), to GST, GST fusion with the human or mouse Fas-IC (GST-huFas-IC, GST-mFas-IC) or to GST fusion with Fas-IC containing a Ile to Ala replacement mutation at position 225.

[2] = system: HeLa cells; experiment: Cytotoxicity triggered by induced expression of MORT-1 in HeLa cells; format: cell-based, human; details: tetracycline-controlled transient expression; neutral red uptake or secreted placental alkaline phosphatase
Description: MORT-1, Fas-IC, p55-IC and luciferase cDNAs were inserted into a tetracycline-controlled expression vector and transfected to HtTA-1 cells (a HeLa cell line) (Gossen and Bujard, 1992) together with the secreted placental alkaline phosphatase cDNA, placed under control of SV40 promoter (the pSBC-2 vector, Dirks et al, 1993). Cell death was assessed 40 hours after transfection, either by the neutral-red uptake assay (Wallach, 1984) or, for assessing specifically the death in those cells that express the transfected cDNAs, by determining the amounts of placental alkaline phosphatase (Berger et al, 1988) secreted to the growth medium at the last 5 hours of incubation.
High expression of p55-IC results in triggering of a cytocidal effect (Boldin et al, 1995). The expression of Fas-IC in HeLa cells also has such an effect, though to a lower extent, which could be detected only with the use of a sensitive assay. The ligand independent triggering of cytocidal effects in cells transfected with MORT-1, as well as human p55-IC and FAS-IC, was thus analyzed. The effect of transient expression of MORT-1, human Fas-IC, human p55-IC, or luciferase that served as a control, on the viability of HeLa cells was assessed using a tetracycline-controlled expression vector. […]

B1: MORT-1: Mediator of Receptor-induced Toxicity; protein binding the intracellular domain of FAS-R, SEQ ID NO:2 (protein)
chain: VNQAPECRFGGGILGPLGKRRDLARASEPRTEGARRAGPQPRPLADPAMDPFLVLLHSVSSSLSSSELTELKFLCLGRVVKRKLERVQSGLDLFSMLLEQNDLEPGHTELLRELLASLRRHDLLRRVDDFEAGAAAGAAPGEEDLCAAFNVICDNVGKDWRRLARQLKVSDTKIDSIEDRYPRNLTERVRESLRIWKNTEKENATVAHLVGALRSCQMNLVADLVQEVQQARDLQNRSGAMSPMSWNSDASTSEAS
[1]
  in vitro binding to GST-Fas-IC (I225A): did not bind
[2]
  cell death on expression in HeLa cells: significant cell death
